In article PMC9126943, “ADAMTS4-specific MR probe to assess aortic aneurysms in vivo using synthetic peptide libraries” (Nature Communications, 2022):
Where “and” joins values, the source holds several entries; their conditions need not be identical. Identical values can stand only once. Entries after “also recorded” stand apart in the source; their conditions may differ. Where a SMILES comes first, the peptide text is derived from it. Bridges are numbered along the chain shown (N, C = ends). The star is where a group is joined. DOTA = O=C(O)CN1CCN(CC(=O)O)CCN(CC(=O)*)CCN(CC(=O)O)CC1

Tests used:
[1] = Metabolic stability in human plasma by HPLC; format: in vitro ADME; conditions: lyophilized human plasma 1 g in 10 ml water, 0.2 µm filtered; 8 mg probe in 2 ml plasma; 37 °C, 700 rpm; 5 min to 24 h; HPLC C18, absorbance 220 nm, blank subtracted
Description: 1 g of lyophilized human plasma was dissolved in 10 ml ultrapure water and mixed for 12 h at 4 °C. Afterward, the plasma was filtered with a pore size of 0.2 µm, and the filtrate was mixed for 1 h at 37 °C. 2 ml of plasma was mixed with 8 mg of the ADAMTS4-specific probe, while 2 ml plasma was kept blank. Both samples were shaken at 37 °C at 700 rpm. After different time points (5 min, 30 min, 45 min, 1 h, 2 h, […], 18 h, and 24 h) respectively, 200 µl of both samples were removed and 200 µl guanidium HCl (6 M, pH 3) was added to each sample and mixed for 30 min at RT. Afterward, 1 ml EtOH was added, and the samples were shaken at 4 °C for 48 h. The samples were centrifuged at 4 °C, 22640 x g for 15 min, and 1 ml of the supernatant was taken. The solvent was removed with the Speedvac (Martin Christ RVC 2-18 CDplus) at 37 °C. 250 µl ultrapure water + 0.2% TFA were added into each sample and shaken overnight. The samples were centrifuged at 4 °C, 22640 x g for 15 min, and 200 µl were transferred into MS vials. The samples were measured with an AdvanceBio Peptide Map column (C18; Core-shell; length 15 cm; ID 2.1 mm) on a 1260 Infinity Bioinert Quaternary LC System (Agilent Technologies). The following conditions were used: 2 µl injections volume, flowrate 0.4 ml/min, 0–30 min 99% A to 85% A (A: ultrapure water with 0.2% TFA; B ACN with 0.16% TFA). […]

[2] = molecular target: T1, ADAMTS4 (Homo sapiens, UniProt O75173); assay: Relaxivity at 3 Tesla, unbound and bound to ADAMTS4; format: physicochemical; conditions: 3 T, 1% BSA in PBS
T1 construct: purchased R&D systems 4307-AD-020
T1 sequence (O75173 213-837): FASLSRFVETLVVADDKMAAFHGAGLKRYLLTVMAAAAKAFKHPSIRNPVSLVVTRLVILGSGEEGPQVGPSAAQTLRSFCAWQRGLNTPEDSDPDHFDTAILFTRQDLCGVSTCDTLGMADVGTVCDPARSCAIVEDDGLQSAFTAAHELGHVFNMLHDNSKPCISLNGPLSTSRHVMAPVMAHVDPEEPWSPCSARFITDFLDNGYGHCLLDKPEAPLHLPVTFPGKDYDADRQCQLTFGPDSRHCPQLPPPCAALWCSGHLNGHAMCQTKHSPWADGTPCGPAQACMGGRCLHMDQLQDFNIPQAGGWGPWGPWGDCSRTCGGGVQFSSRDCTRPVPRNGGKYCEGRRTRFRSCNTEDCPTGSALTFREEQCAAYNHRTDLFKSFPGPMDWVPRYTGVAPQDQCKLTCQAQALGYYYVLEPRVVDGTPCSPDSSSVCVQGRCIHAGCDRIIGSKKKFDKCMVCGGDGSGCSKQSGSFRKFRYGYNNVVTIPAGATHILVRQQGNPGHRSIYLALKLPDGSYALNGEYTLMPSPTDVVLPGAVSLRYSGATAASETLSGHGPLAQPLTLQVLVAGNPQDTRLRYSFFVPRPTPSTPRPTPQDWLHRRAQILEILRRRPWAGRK
Description: One milliliter of a 1 µg/ml solution of the ADAMTS4-specific probe in 1% BSA in PBS buffer was measured in a reaction tube using a 3 T MRI scanner. 1% BSA in PBS buffer was used as a negative control. After each scan, 50 µl of a 0.2 µg/µl solution of ADAMTS4 (R&D systems, 4307-AD-020) was added to one reaction tube, while 50 µl of the 1% BSA in PBS buffer was added to the second reaction tube. Tubes were shaken and measured again. The following ADAMTS4 concentrations were measured: 0 µg, 10 µg, 20 µg, 30 µg, 40 µg, 50 µg, and 60 µg.

[3] = Gadolinium in the aortic wall by ICP-MS; format: in vivo, mouse; conditions: ICP-MS of digested aorta after probe administration; individual mice, n = 7
Description: The samples were dissolved with 12 ml ultrapure water.

[4] = molecular target: T2, ADAMTS4 in the aneurysmal aortic wall of ApoE−/− mice (Mus musculus, UniProt Q8BNJ2); assay: In vivo competition experiment
T2 construct: from tissue
T2 sequence (Q8BNJ2 209-833): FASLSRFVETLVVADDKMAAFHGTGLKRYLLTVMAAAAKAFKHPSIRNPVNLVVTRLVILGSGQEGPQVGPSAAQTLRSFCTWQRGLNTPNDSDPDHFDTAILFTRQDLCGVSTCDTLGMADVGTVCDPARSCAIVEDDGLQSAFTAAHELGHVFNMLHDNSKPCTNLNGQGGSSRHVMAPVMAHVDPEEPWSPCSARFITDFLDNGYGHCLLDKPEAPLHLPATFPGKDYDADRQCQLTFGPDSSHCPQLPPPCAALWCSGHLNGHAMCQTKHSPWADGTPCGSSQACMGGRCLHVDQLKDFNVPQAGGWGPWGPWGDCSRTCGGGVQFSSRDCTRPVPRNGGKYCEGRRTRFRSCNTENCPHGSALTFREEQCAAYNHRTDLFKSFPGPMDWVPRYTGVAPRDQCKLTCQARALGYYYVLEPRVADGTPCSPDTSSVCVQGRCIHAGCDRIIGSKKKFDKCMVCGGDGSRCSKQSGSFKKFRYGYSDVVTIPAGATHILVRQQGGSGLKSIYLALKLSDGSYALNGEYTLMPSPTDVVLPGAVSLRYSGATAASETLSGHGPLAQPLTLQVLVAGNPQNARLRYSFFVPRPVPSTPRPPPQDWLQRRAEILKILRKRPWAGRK
Description: An in vivo competition experiment was performed in 3 ApoE^−/− mice (n = 3) 4 weeks after AAA induction. On day 1, MR imaging was performed prior to and following the intravenous administration of the ADAMTS4-specific probe. On day 2, MRI was performed prior to and after the injection of a 7-fold higher dose of the non-paramagnetic europium-labeled ADAMTS4-specific probe. Then, a clinical dose of the ADAMST4 specific probe (0.13 mmol/kg) was administered with the following imaging after 20 min.
Analysis of resulting MR images was performed using OsiriX (version 7.1, OsiriX Foundation, Bernex, Switzerland). All morphometric measurements were conducted on high-resolution MRI images. In order to assess the signal intensities, regions of interest (ROIs) were measured as areas of signal enhancement, which were co-localized with areas of aneurysmal-aortic tissue. For these areas, the CNR was calculated using the following formula: CNR = (Combined vessel-wall and aneurysmal-aortic-tissue-signal − blood-signal)/standard-deviation-signal (noise). The signal of noise was defined as the standard deviation in pixel intensity from an ROI placed in the background air anterior to the aorta.

N=C(N)NCCC[C@@H]1NC(=O)[C@H](CCCNC(=N)N)NC(=O)[C@H](CO)NC(=O)[C@@H](N)CSSC[C@@H](C(=O)N[C@@H](CO)C(=O)NCC(=O)NCC(=O)N[C@@H](CO)C(=O)NCC(=O)NCC(=O)N[C@@H](CCCCNC(=O)CN2CCN(CC(=O)O)CCN(CC(=O)O)CCN(CC(=O)O)CC2)C(=O)NCC(N)=O)NC(=O)CNC1=O (Gd complex, metal not drawn) [ADAMTS4-specific probe] (H-CSRRGCSGGSGGK(DOTA)G-NH2; disulfide 1-6)
degradation in human plasma within 24 h [1]: No relevant degradation; also recorded: No relevant biodegradation
longitudinal relaxivity, unbound probe [2]: 3.4 ± 0.19 mM⁻¹ s⁻¹
longitudinal relaxivity, bound probe ([2]; ADAMTS4 added): 6.13 ± 0.73 mM⁻¹ s⁻¹
Gd amount in the aortic wall [3]: 38.015 ng/kg and 35.695 ng/kg and 62.7086 ng/kg and 32.3631 ng/kg and 8.118 ng/kg and 16.4033 ng/kg and 11.8689 ng/kg
CNR d1 post, individual animals ([4]; day 1, Gd-labeled probe alone): 10.05 and 8.83 and 9.84
CNR d2 post, individual animals ([4]; day 2, after 7-fold dose of Eu-labeled probe followed by Gd-labeled probe 0.13 mmol/kg): 5.81 and 4.92 and 5.19
